{
  "source": "paper PMC5206724",
  "about": "“Insensitivity to pain induced by a potent selective closed-state Nav1.7 inhibitor” (Scientific Reports, 2017)",
  "key": {"[1]": {"target": "human Nav1.1 (human) (UniProt P35498)"}, "[2]": {"target": "human Nav1.2 (human) (UniProt Q99250)"}, "[3]": {"target": "human Nav1.3 (human) (UniProt Q9NY46)", "sequence (Q9NY46 whole entry)": "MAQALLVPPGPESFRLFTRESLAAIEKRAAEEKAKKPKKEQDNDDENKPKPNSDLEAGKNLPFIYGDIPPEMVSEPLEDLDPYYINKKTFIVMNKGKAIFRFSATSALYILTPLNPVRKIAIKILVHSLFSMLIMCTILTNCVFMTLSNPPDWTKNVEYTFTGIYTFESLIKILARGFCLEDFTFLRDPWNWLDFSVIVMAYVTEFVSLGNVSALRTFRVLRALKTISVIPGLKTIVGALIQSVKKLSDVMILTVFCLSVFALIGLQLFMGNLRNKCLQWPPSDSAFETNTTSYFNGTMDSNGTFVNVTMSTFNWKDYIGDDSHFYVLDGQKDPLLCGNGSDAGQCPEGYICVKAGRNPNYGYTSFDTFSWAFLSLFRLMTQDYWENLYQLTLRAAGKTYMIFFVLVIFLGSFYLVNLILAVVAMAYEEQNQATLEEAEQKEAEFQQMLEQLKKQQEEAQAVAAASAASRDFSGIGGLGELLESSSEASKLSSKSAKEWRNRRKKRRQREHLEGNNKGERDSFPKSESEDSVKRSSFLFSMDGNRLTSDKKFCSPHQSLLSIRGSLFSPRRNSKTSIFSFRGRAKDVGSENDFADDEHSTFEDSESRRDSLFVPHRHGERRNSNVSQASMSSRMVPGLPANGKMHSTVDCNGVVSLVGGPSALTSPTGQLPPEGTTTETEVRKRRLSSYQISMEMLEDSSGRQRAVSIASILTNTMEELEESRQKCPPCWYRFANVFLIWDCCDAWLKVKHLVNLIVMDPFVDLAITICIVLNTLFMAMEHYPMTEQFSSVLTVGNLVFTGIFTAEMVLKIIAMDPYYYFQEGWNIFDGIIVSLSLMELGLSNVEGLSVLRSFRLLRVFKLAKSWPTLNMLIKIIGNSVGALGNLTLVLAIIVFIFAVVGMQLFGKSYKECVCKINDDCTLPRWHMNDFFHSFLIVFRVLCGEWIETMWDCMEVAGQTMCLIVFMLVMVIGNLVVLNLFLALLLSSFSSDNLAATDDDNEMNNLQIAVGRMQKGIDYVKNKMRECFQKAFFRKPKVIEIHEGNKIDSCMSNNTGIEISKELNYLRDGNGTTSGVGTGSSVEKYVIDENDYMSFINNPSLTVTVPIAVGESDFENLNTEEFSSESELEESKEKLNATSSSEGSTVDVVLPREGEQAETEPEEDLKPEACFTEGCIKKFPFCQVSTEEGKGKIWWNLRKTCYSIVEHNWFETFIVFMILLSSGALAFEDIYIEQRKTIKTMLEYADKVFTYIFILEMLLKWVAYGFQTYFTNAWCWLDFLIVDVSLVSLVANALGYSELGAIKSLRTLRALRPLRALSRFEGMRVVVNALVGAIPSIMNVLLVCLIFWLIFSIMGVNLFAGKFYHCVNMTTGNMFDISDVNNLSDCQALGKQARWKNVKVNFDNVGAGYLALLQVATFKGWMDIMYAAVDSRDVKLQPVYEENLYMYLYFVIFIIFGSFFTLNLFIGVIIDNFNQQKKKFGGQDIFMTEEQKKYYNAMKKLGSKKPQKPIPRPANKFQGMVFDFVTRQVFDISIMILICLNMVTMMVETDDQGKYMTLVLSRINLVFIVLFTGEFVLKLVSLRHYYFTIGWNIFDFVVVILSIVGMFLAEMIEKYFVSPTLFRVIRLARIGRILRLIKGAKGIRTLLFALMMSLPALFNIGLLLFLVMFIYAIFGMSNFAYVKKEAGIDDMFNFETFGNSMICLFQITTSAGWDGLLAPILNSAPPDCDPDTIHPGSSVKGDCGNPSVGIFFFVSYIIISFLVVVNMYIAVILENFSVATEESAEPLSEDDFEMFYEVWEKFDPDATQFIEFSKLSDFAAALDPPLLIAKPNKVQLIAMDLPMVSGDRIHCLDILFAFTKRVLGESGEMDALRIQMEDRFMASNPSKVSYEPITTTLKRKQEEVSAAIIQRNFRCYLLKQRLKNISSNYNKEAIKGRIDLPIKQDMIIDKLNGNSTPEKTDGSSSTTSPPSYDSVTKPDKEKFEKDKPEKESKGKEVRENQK"}, "[4]": {"target": "human Nav1.4 (human) (UniProt P35499)"}, "[5]": {"target": "human Nav1.5 (human) (UniProt Q14524)"}, "[6]": {"target": "human Nav1.6 (human) (UniProt Q9UQD0)", "sequence (Q9UQD0 whole entry)": "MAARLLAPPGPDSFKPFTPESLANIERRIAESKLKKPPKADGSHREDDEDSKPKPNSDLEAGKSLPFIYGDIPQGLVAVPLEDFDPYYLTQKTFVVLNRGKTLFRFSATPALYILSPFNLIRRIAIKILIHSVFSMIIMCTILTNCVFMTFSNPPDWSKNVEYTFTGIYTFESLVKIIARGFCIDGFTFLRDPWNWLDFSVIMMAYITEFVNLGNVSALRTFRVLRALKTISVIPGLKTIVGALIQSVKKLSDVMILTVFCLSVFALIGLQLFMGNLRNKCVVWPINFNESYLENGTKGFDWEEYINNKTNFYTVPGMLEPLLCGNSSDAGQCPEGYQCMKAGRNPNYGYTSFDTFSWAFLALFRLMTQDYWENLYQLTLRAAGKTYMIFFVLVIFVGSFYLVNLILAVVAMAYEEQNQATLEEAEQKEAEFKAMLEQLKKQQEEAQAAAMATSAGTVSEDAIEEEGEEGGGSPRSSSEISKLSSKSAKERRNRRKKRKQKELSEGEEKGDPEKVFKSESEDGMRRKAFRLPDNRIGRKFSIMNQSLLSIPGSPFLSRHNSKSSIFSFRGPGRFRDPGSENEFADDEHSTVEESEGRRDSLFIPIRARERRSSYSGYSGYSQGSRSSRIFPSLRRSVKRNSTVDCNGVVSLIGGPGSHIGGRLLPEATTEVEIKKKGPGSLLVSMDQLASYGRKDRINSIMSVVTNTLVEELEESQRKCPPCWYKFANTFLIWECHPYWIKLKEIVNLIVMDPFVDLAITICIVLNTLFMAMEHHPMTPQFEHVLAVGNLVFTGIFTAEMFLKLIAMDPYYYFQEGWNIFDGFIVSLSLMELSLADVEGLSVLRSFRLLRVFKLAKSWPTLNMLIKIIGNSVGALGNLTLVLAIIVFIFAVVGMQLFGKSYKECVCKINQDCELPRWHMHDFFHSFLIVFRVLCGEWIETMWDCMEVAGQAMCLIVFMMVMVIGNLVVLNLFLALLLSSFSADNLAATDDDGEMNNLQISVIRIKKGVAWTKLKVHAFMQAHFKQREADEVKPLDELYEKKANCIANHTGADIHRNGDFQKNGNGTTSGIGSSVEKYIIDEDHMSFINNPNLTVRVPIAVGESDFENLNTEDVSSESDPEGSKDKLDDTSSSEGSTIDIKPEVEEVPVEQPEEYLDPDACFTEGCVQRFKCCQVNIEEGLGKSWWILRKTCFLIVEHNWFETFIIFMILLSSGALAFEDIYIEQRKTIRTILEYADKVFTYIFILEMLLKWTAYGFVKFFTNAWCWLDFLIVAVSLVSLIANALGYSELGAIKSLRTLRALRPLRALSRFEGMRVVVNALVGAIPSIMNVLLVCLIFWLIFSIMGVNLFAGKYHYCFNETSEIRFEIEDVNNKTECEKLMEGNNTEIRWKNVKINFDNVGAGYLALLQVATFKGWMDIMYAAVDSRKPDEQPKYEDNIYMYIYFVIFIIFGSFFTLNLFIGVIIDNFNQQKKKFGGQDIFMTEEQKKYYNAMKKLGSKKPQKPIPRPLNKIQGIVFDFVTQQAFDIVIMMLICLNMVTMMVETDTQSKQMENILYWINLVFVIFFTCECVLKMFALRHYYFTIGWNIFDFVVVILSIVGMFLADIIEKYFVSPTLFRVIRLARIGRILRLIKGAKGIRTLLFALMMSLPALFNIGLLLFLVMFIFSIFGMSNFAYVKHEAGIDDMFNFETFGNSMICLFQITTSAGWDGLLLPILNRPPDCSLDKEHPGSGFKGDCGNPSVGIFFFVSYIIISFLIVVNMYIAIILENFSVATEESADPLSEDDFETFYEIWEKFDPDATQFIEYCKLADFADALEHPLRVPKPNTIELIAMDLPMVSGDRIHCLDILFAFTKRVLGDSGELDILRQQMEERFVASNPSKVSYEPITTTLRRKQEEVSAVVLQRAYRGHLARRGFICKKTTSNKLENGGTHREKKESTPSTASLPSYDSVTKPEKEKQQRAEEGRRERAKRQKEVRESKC"}},
  "data": [
    {"substance": "Protoxin-II (β/ω-theraphotoxin-Tp2a) (from UniProt P83476 1-30) (peptide)", "values": [
      {"measurement": "pIC50 of inhibition of sodium current, automated patch clamp (QPatch); fitted Emax 100 %", "setting": "[1]", "result": "7.8 -log10(IC50)"},
      {"measurement": "pIC50 of inhibition of sodium current, automated patch clamp (QPatch); fitted Emax 100 %", "setting": "[2]", "result": "7.1 -log10(IC50)"},
      {"measurement": "pIC50 of inhibition of sodium current, automated patch clamp (QPatch); fitted Emax 100 %", "setting": "[3]", "result": "7.6 -log10(IC50)"},
      {"measurement": "pIC50 of inhibition of sodium current, automated patch clamp (QPatch); fitted Emax 100 %", "setting": "[4]", "result": "7.1 -log10(IC50)"},
      {"measurement": "pIC50 of inhibition of sodium current, automated patch clamp (QPatch); fitted Emax 100 %", "setting": "[5]", "result": "6.4 -log10(IC50)"},
      {"measurement": "pIC50 of inhibition of sodium current, automated patch clamp (QPatch); fitted Emax 100 %", "setting": "[6]", "result": "7.5 -log10(IC50)"}
    ]}
  ]
}
